Substitutions are numbered along the chain they refer to. Square brackets hold non-standard residues; d marks the D form. Ends that are not written are not given here. pS = N[C@@H](COP(=O)(O)O)C(=O)O

This is an account of results in publication PMC7946963 (2021).

Among the targets are GABARAPL2 (UniProt P60520 1-117); 1 (UniProt Q9H0R8 1-117); LC3B (UniProt Q9GZQ8 1-120); LC3A (UniProt Q9H492 1-121).
Common to all, as to assay: FP
The target in another test is T1, FIP200 Claw F1574Q (human).
T1 chain: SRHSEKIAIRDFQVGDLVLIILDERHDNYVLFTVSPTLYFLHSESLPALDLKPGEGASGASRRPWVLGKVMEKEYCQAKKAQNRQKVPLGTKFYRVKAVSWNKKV

The next test deals with T2, FIP200 Claw R1573E (human).
T2 chain: T1 chain with R84E, Q85F

Another test deals with T3, FIP200 Claw Y1564S (human).
T3 chain: T1 chain with Y75S, Q85F

A further test concerns the target T4, FIP200 Claw K1569A (human).
T4 chain: T1 chain with K80A, Q85F

The target of the next test is T5, LC3C (UniProt Q9BXW4 1-126).
T5 chain: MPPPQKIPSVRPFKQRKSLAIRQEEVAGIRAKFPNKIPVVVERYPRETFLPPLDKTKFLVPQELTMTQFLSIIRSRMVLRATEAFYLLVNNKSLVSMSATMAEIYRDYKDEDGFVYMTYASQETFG

For test [1], the target named is T6, FIP200 Claw domain (residues 1490–1594) (human, UniProt Q8TDY2 1490-1594).
T6 chain: T1 chain with Q85F

Sequence of GABARAPL2 (P60520 whole entry): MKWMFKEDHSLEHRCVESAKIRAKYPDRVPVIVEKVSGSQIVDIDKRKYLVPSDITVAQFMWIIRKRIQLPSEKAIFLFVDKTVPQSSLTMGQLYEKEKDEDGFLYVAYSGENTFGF
Sequence of 1 (Q9H0R8 whole entry): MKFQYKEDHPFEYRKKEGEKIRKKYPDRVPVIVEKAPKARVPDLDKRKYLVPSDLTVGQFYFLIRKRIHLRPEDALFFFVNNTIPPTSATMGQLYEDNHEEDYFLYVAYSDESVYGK

Consider TASDDSDIVTLEPPK (domain or fragment) [CCPG1 FIR2 (residues 99–113), recombinant], for which the Kd in the test with FIP200 Claw F1574Q was found to be 120 µM; in the test with FIP200 Claw R1573E, 138 µM; with FIP200 Claw Y1564S, 79.5 µM; in the test with FIP200 Claw K1569A, 105 µM.

Consider TASDDSDIVTLEPPK (also: N-terminal FITC only in fluorescence polarisation assay form) [CCPG1 FIR2 synthetic peptide (residues 99–113)], for which the dissociation constant (Kd) was 123 µM with GABARAPL2; 39.8 µM in the test with LC3C; 37.3 µM with 1; 40.7 µM in the test with LC3B; 37.3 µM with LC3A; 12.3 µM in test [1].

Consider TASDD[pS]DIVTLEPPK (also: N-terminal FITC in fluorescence polarisation assay only) [phospho-CCPG1 FIR2 synthetic peptide (p-CCPG1 FIR2)], for which the Kd in the test with GABARAPL2 is 34.5 µM; with LC3C, 11 µM; in the test with 1, 15.3 µM; in the test with LC3B, 20.6 µM; with LC3A, 15.3 µM; in test [1], 0.72 µM.
